# Paper PMC5765355, “Phosphorylation of Pnut in the Early Stages of Drosophila Embryo Development Affects Association of the Septin Complex with the Membrane and Is Important for Viability” (G3: Genes|Genomes|Genetics, 2017)
# T1: His-tagged phospho-mimetic Pnut-T509E/S517E (Drosophila melanogaster, UniProt P40797 1-539, T509E | S517E)
# T1 construct: Septin Pnut (Peanut), Drosophila melanogaster, with T509E and S517E; also called T509E/S517E mutant; source: baculovirus expression system, expressed together with Sep1 and Sep2; assembled complex purified
# T1 sequence (looked up): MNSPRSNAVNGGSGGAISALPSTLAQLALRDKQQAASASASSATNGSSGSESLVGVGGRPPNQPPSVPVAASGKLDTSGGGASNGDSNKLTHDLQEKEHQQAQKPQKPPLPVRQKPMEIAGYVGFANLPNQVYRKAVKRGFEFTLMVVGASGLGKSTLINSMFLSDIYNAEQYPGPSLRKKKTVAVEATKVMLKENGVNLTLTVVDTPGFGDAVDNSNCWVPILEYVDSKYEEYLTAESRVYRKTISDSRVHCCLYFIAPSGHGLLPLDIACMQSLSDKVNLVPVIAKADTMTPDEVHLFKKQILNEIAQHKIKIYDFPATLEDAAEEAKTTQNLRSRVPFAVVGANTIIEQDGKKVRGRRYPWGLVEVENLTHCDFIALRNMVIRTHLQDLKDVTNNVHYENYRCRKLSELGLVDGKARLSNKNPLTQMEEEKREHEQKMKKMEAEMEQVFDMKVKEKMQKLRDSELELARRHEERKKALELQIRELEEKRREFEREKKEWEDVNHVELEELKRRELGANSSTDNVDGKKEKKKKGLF
# T2: His-tagged wild-type Pnut (Drosophila melanogaster, UniProt P40797 1-539)
# T2 construct: Septin Pnut (Peanut), Drosophila melanogaster, wild type; homolog of human SEPT7; also called His–Pnut; Pnut-WT; source: baculovirus expression system, expressed together with Sep1 and Sep2; assembled complex purified
# T2 sequence (looked up): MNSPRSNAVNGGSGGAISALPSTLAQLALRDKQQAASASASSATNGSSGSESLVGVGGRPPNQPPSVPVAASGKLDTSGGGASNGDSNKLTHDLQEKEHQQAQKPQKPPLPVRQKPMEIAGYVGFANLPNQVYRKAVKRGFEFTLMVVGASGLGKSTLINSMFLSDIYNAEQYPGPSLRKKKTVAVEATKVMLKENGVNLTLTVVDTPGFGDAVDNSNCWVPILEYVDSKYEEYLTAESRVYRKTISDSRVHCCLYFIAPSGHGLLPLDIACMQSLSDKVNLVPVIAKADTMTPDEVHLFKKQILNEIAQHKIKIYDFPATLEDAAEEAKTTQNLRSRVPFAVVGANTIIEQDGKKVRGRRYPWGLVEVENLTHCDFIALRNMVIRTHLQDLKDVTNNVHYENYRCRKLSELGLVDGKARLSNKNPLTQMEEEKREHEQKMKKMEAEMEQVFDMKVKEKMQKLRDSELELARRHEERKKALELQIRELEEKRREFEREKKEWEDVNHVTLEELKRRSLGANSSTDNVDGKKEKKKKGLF
# T3: His-tagged nonphosphorylatable Pnut-T509A/S517A (Drosophila melanogaster, UniProt P40797 1-539, T509A | S517A)
# T3 construct: Septin Pnut (Peanut), Drosophila melanogaster, with T509A and S517A; source: baculovirus expression system, expressed together with Sep1 and Sep2; assembled complex purified
# T3 sequence (looked up): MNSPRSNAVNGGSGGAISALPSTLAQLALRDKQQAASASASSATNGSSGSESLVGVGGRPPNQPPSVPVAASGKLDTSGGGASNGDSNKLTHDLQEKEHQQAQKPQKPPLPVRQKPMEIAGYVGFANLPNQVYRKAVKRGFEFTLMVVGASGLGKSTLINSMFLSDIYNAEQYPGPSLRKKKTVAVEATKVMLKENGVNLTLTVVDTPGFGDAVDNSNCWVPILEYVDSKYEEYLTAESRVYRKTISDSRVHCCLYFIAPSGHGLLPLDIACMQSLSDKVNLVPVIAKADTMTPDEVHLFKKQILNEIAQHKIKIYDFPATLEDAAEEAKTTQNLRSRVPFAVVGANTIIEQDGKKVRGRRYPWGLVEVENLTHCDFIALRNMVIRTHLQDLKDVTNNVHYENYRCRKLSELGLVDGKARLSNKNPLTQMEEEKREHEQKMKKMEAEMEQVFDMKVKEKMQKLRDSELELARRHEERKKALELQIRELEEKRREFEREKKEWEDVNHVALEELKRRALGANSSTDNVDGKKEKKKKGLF
# Tests used:
# Details in all cases: both partners purified
# [1] = molecular target: T1, His-tagged phospho-mimetic …; test: pull-down; 2 µg purified recombinant septin complex diluted in 200 µl pull-down buffer (25 mM HEPES pH 7.6, 2 mM MgCl2, 10 mM imidazole) with 50 mM KCl; His-Pnut held on HisPur Ni-NTA resin, 1 hr at 22°; eluted with 250 mM imidazole; silver-stained SDS-PAGE; Sep1 given as a percentage of the Pnut amount
# [2] = molecular target: T2, His-tagged wild-type Pnut; test: pull-down; 2 µg purified recombinant septin complex diluted in 200 µl pull-down buffer (25 mM HEPES pH 7.6, 2 mM MgCl2, 10 mM imidazole) with 300 mM KCl; His-Pnut held on HisPur Ni-NTA resin, 1 hr at 22°; eluted with 250 mM imidazole; silver-stained SDS-PAGE; Sep1 given as a percentage of the Pnut amount
# [3] = molecular target: T3, His-tagged nonphosphorylatable …; test: as above
# [4] = molecular target: T2, His-tagged wild-type Pnut; test: pull-down; 2 µg purified recombinant septin complex diluted in 200 µl pull-down buffer (25 mM HEPES pH 7.6, 2 mM MgCl2, 10 mM imidazole) with 50 mM KCl; His-Pnut held on HisPur Ni-NTA resin, 1 hr at 22°; eluted with 250 mM imidazole; silver-stained SDS-PAGE; Sep1 given as a percentage of the Pnut amount
# [5] = molecular target: T3, His-tagged nonphosphorylatable …; test: as above
# [6] = molecular target: T1, His-tagged phospho-mimetic …; test: pull-down; 2 µg purified recombinant septin complex diluted in 200 µl pull-down buffer (25 mM HEPES pH 7.6, 2 mM MgCl2, 10 mM imidazole) with 300 mM KCl; His-Pnut held on HisPur Ni-NTA resin, 1 hr at 22°; eluted with 250 mM imidazole; silver-stained SDS-PAGE; Sep1 given as a percentage of the Pnut amount
Binder,binding result [1],binding result [2],binding result [3],amount of Sep1 as a percentage of the Pnut amount [4],amount of Sep1 as a percentage of the Pnut amount [5],amount of Sep1 as a percentage of the Pnut amount [1],amount of Sep1 as a percentage of the Pnut amount [2],amount of Sep1 as a percentage of the Pnut amount [3],amount of Sep1 as a percentage of the Pnut amount [6]
"Sep2 (recombinant) (natural protein, Drosophila melanogaster, UniProt P54359 1-419, looked up, Septin Sep2, Drosophila melanogaster; homolog of human SEPT6; source: baculovirus expression system, expressed together with His-tagged Pnut and Sep1; assembled complex purified) MSVEVDFVDKKEVHLRTLKQSGHVGFDSLPDQLVNKSVQNGFVFNVMCIGETGLGKSTLMDTLFNTSFESTPSPHTLPSVKLKAHTYELQESNVRLKLTICDTVGYGDQINKDDSFKAVVDYIDAQFENYLQEELKIKRSLVTCHDSRIHICLYFICPTGHGLKSLDLVCMKKLDSKVNIIPVIAKADTISKVELQRFKAKIIQELNANGVHIYQFPTDDETVAETNTSMNSHIPFAVVGSTEFIKVGNKLIRARQYPWGTVQVENETHCDFVKLREMLIRTNMEDMREKTHTRHYELYRQKRLEQMGFSDVDSDNKPISFQQTFEAKRSNHLAELQSKEEEVRQMFVQRVKEKEAELKESEKDLHAKFEKLKRDHAEEKRKLEESRKALEEDYLDFQRRKQQLATAHHTLTLGKSKKK",binds,binds,binds,–,–,–,–,–,–
"Sep1 (recombinant) (natural protein, Drosophila melanogaster, UniProt P42207 1-361, looked up, Septin Sep1, Drosophila melanogaster; homolog of human SEPT2; source: baculovirus expression system, expressed together with His-tagged Pnut and Sep2; assembled complex purified) MADTKGFSSIETPGYVGFANLPNQVHRKSVKKGFEFTLMVVGESGLGKSTLVNSLFLTDLYPERIIPDAIEKQKQTVKLEASTVEIEERGVKLRLTVVDTPGFGDAIDNSNSFGAILEYIDEQYERFLRDESGLNRRNIVDNRIHCCFYFISPFGHGLKPLDVEFMKKLHSKVNIVPVIAKADCLTKKEILRLKCRIMQEIESHGIKIYPLPDCDSDEDEDYKEQVKQLKEAVPFAVCGANTLLEVKGKKVRGRLYPWGVVEVENPDHCDFIKLRTMLITHMQDLQEVTQEVHYENYRSDRLAKGIKGKENGVKAERDSSSQVVSNSVLGEKDRILQEKEAELRRMQEMLAQMQARMQAQQ",–,–,–,34%,17%,1%,62.3%,62%,31%
